Measurements from patent publication US20050025740A1.

Target: binding site for alpha-melanocyte stimulating hormone on mouse melanoma cells (mouse)
Experiment: binding assay using mouse melanoma cells (Bagutti 1992); ratio against full-length natural alpha-MSH

relative binding (Kd of full-length natural hormone divided by Kd of the oxime analog)	Substance
3.33	dioxime formed between the aminooxyacetyl peptide (AOA-Nle-Asp-His-(D)Phe-Arg-Trp-Lys-amide) and glyoxal (O=CH-CH=O)
0.82	control monooxime of the alpha-MSH analog Nle-Asp-His-(D)Phe-Arg-Trp-Lys-amide (aminooxyacetyl peptide oximated with acetaldehyde)
